Assay results as given in patent US20210388087A1 (Chugai, published 2021).
Substitutions are numbered along the chain they refer to. Numbers in names are those of the source.

T1: Human CD3eg linker (human)
T1 construct: Single chain: epsilon and gamma subunits of human CD3 joined by a 29-mer linker, Flag-tag at the C-terminus; also called recombinant human CD3
T1 chain: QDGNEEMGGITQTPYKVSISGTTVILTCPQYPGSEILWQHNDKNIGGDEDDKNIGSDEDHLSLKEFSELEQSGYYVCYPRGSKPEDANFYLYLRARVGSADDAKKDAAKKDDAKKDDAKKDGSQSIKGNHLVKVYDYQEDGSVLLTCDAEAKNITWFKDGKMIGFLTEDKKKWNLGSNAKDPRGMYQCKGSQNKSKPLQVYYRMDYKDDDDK

B1: H183/L072 VH N53Y (antibody, name in Kabat numbering, V domains shown)
VH: QVQLVESGGGLVQPGRSLRLSCAASGFTFSNAWMHWVRQAPGKGLEWVAQIKDKGYAYAAYYAPSVKGRFTISRDDSKNSIYLQMNSLKTEDTAVYYCHYVHYASASTVLPAFGVDAWGQGTTVTVSS
VL: DIVMTQSPLSLPVTPGEPASISCQASQELVHMNRNTYLHWYQQKPGQAPRLLIYKVSNRFPGVPDRFSGSGSGTDFTLKISRVEAEDVGVYYCAQGTSVPFTFGQGTKLEIK
B2: H183/L072 VH P100eL (antibody, name in Kabat numbering, V domains shown)
VH: B1 VH with Y56N, P111L
VL: B1 VL
B3: H183/L072 VH P61I (antibody, name in Kabat numbering, V domains shown)
VH: B1 VH with Y56N, P64I
VL: B1 VL
B4: H183/L072 VH Q50F (antibody, name in Kabat numbering, V domains shown)
VH: B1 VH with Q50F, Y56N
VL: B1 VL
B5: H183/L072 VH S30E (antibody, name in Kabat numbering, V domains shown)
VH: B1 VH with S30E, Y56N
VL: B1 VL
B6: H183/L072 VH Q50M (antibody, name in Kabat numbering, V domains shown)
VH: B1 VH with Q50M, Y56N
VL: B1 VL
B7: H183/L072 VH S30F (antibody, name in Kabat numbering, V domains shown)
VH: B1 VH with S30F, Y56N
VL: B1 VL
B8: H183/L072 VH S30A (antibody, name in Kabat numbering, V domains shown)
VH: B1 VH with S30A, Y56N
VL: B1 VL
B9: H183/L072 VH S30H (antibody, name in Kabat numbering, V domains shown)
VH: B1 VH with S30H, Y56N
VL: B1 VL
B10: H183/L072 VH S30T (antibody, name in Kabat numbering, V domains shown)
VH: B1 VH with S30T, Y56N
VL: B1 VL
B11: H183/L072 VH S30V (antibody, name in Kabat numbering, V domains shown)
VH: B1 VH with S30V, Y56N
VL: B1 VL
B12: H183/L072 VH Q50P (antibody, name in Kabat numbering, V domains shown)
VH: B1 VH with Q50P, Y56N
VL: B1 VL
B13: H183/L072 VH Q50T (antibody, name in Kabat numbering, V domains shown)
VH: B1 VH with Q50T, Y56N
VL: B1 VL
B14: H183/L072 VH S30N (antibody, name in Kabat numbering, V domains shown)
VH: B1 VH with S30N, Y56N
VL: B1 VL
B15: H183/L072 VH Q50K (antibody, name in Kabat numbering, V domains shown)
VH: B1 VH with Q50K, Y56N
VL: B1 VL
B16: H183/L072 VH P100eI (antibody, name in Kabat numbering, V domains shown)
VH: B1 VH with Y56N, P111I
VL: B1 VL
B17: H183/L072 VH P100eA (antibody, name in Kabat numbering, V domains shown)
VH: B1 VH with Y56N, P111A
VL: B1 VL
B18: H183/L072 VH P61L (antibody, name in Kabat numbering, V domains shown)
VH: B1 VH with Y56N, P64L
VL: B1 VL
B19: H183/L072 VH S30K (antibody, name in Kabat numbering, V domains shown)
VH: B1 VH with S30K, Y56N
VL: B1 VL
B20: H183/L072 VH S30P (antibody, name in Kabat numbering, V domains shown)
VH: B1 VH with S30P, Y56N
VL: B1 VL
B21: H183/L072 VH Q50D (antibody, name in Kabat numbering, V domains shown)
VH: B1 VH with Q50D, Y56N
VL: B1 VL
B22: H183/L072 VH Q50L (antibody, name in Kabat numbering, V domains shown)
VH: B1 VH with Q50L, Y56N
VL: B1 VL
B23: H183/L072 VH Q50G (antibody, name in Kabat numbering, V domains shown)
VH: B1 VH with Q50G, Y56N
VL: B1 VL
B24: H183/L072 VH S30G (antibody, name in Kabat numbering, V domains shown)
VH: B1 VH with S30G, Y56N
VL: B1 VL
B25: H183/L072 VH P61M (antibody, name in Kabat numbering, V domains shown)
VH: B1 VH with Y56N, P64M
VL: B1 VL
B26: H183/L072 VH S30W (antibody, name in Kabat numbering, V domains shown)
VH: B1 VH with S30W, Y56N
VL: B1 VL
B27: H183/L072 VH Q50W (antibody, name in Kabat numbering, V domains shown)
VH: B1 VH with Q50W, Y56N
VL: B1 VL
B28: H183/L072 VH S30D (antibody, name in Kabat numbering, V domains shown)
VH: B1 VH with S30D, Y56N
VL: B1 VL
B29: H183/L072 VH S30M (antibody, name in Kabat numbering, V domains shown)
VH: B1 VH with S30M, Y56N
VL: B1 VL
B30: H183/L072 VH Q50R (antibody, name in Kabat numbering, V domains shown)
VH: B1 VH with Q50R, Y56N
VL: B1 VL
B31: H183/L072 VH S30Q (antibody, name in Kabat numbering, V domains shown)
VH: B1 VH with S30Q, Y56N
VL: B1 VL
B32: H183/L072 VH Q50S (antibody, name in Kabat numbering, V domains shown)
VH: B1 VH with Q50S, Y56N
VL: B1 VL
B33: H183/L072 VH Q50V (antibody, name in Kabat numbering, V domains shown)
VH: B1 VH with Q50V, Y56N
VL: B1 VL
B34: H183/L072 VH P61A (antibody, name in Kabat numbering, V domains shown)
VH: B1 VH with Y56N, P64A
VL: B1 VL
B35: H183/L072 VH Q50I (antibody, name in Kabat numbering, V domains shown)
VH: B1 VH with Q50I, Y56N
VL: B1 VL
B36: H183/L072 VH Q50N (antibody, name in Kabat numbering, V domains shown)
VH: B1 VH with Q50N, Y56N
VL: B1 VL
B37: H183/L072 VH Q50A (antibody, name in Kabat numbering, V domains shown)
VH: B1 VH with Q50A, Y56N
VL: B1 VL
B38: H183/L072 VH S30Y (antibody, name in Kabat numbering, V domains shown)
VH: B1 VH with S30Y, Y56N
VL: B1 VL
B39: H183/L072 VH S30L (antibody, name in Kabat numbering, V domains shown)
VH: B1 VH with S30L, Y56N
VL: B1 VL
B40: H183/L072 VH Q50Y (antibody, name in Kabat numbering, V domains shown)
VH: B1 VH with Q50Y, Y56N
VL: B1 VL
B41: H183/L072 VH P100eM (antibody, name in Kabat numbering, V domains shown)
VH: B1 VH with Y56N, P111M
VL: B1 VL
B42: H183/L072 VH S30R (antibody, name in Kabat numbering, V domains shown)
VH: B1 VH with S30R, Y56N
VL: B1 VL
B43: H183/L072 VH Q50H (antibody, name in Kabat numbering, V domains shown)
VH: B1 VH with Q50H, Y56N
VL: B1 VL
B44: H183/L072 VH Q50E (antibody, name in Kabat numbering, V domains shown)
VH: B1 VH with Q50E, Y56N
VL: B1 VL
B45: H183/L072 VH S30I (antibody, name in Kabat numbering, V domains shown)
VH: B1 VH with S30I, Y56N
VL: B1 VL

Biological target: T1, Human CD3eg linker
Assay: Biacore SPR, vs template H183/L072

fold change of affinity	Binder
0.9 fold	B1
1.3 fold	B2
1.8 fold	B3
0.3 fold	B4
0.6 fold	B5
0.1 fold	B6
1 fold	B7
0.8 fold	B8
1 fold	B9
1.1 fold	B10
0.8 fold	B11
0 fold	B12
0 fold	B13
0.7 fold	B14
0 fold	B15
1.4 fold	B16
1.2 fold	B17
1.8 fold	B18
0.9 fold	B19
0.3 fold	B20
0 fold	B21
0.2 fold	B22
0 fold	B23

fold change of affinity	Binder
1.1 fold	B24
1.8 fold	B25
1.3 fold	B26
0 fold	B27
1 fold	B28
0.7 fold	B29
0 fold	B30
0.8 fold	B31
0 fold	B32
0 fold	B33
1.9 fold	B34
0.4 fold	B35
0 fold	B36
0 fold	B37
1.2 fold	B38
0.8 fold	B39
0.9 fold	B40
1.8 fold	B41
0.8 fold	B42
0.3 fold	B43
0 fold	B44
0.8 fold	B45
